Test results: the Human Domainome abundance scans (Beltran et al. 2025)

B1: Cold shock protein CspB, residues 1 to 66; numbered along this chain, P41016 (parent)
chain: MQRGKVKWFNNEKGYGFIEVEGGSDVFVHFTAIQGEGFKTLEEGQEVSFEIVQGNRGPQAANVVKL

Variants of: B1
Test: abundance fitness (aPCA) (normalised: wild type 0, dead -1); higher = more abundant; growth selection in yeast, the domain comes from the species named
Conditions: Bacillus caldolyticus

Abundance fitness of substitutions, site by site:
P58: D -0.037 | K -0.036 | C -0.083 | L -0.018 | E -0.017 | G -0.082 | F -0.046 | R -0.029 | Y -0.066 | S -0.026 | Q -0.015 | I -0.055 | M 0.006 | V -0.021 | A 0 | H -0.142 | W -0.016
N62: Q 0.152 | I -0.299 | D 0.189
V63: I -0.126 | G -0.873 | E -0.782 | N -0.528 | Y -0.798 | F -1.01 | P -0.643 | R -0.71 | A -0.205 | M -0.283 | H -0.771 | C 0.009 | W -0.774 | L -0.018 | Q -1.13 | K -0.721 | T -0.432
E43: Y -0.017
N55: T -0.256 | S 0.049 | W 0.002 | K 0.018 | F 0.046 | G -0.064 | R -0.075 | Q -0.042 | E -0.043 | I 0.059 | D -0.309 | V 0.005 | C -0.089 | A -0.035 | P -0.026 | L -0.035
A60: W -1 | H -0.771 | Q -0.717 | C -0.115 | F -0.79 | T -0.487 | M -0.752 | L -0.636 | N -1.08 | S -0.14 | V -0.254 | E -0.812 | G -0.171
V52: I -0.018 | Q -0.001 | S -0.018 | E -0.004 | P -0.514 | Y -0.043 | T 0.012 | R 0.009 | N -0.02 | M 0.038 | F -0.029 | H -0.033 | D -0.092 | W -0.053 | C -0.014 | G -0.029 | A 0.029
Q45: P -0.655 | Y -0.072 | T -0.038 | W -0.023 | L -0.021 | A 0.021 | G 0.032 | I -0.09 | S -0.029 | V -0.063 | E -0.003 | N -0.005 | M -0.032 | H -0.036 | C -0.031 | F -0.097 | D -0.104 | R -0.039
V47: G -0.623 | L -0.332 | I 0.065 | A -0.215 | S -0.866 | M -0.702 | Q -0.935
Q53: W 0.007 | A -0.002 | E 0.003 | H -0.046 | R -0.002 | L -0.027 | N 0.004 | M 0.01 | P -0.092 | V -0.001 | T 0.018 | D 0.022 | S -0.03 | K -0.033
F49: M -0.002 | Y -0.037 | R -0.968 | P -0.984 | L -0.007 | S -0.577 | N -1.05 | T -0.27 | C -0.021 | W -0.69 | E -0.965 | V -0.076 | Q -0.893 | K -1.08 | I -0.123 | H -0.445 | D -1.08
I51: H -0.019 | Q 0.007 | N -0.071 | T -0.033 | E -0.026 | G -0.079 | F -0.082 | P -0.023 | L -0.003 | M 0.023 | W -0.041 | C 0.031 | A -0.038 | R -0.004 | V 0.009 | Y 0.037 | K -0.026
V64: S -0.019 | T -0.012 | Y -0.054 | F 0.011 | M -0.064 | L -0.015 | D -0.057 | E -0.003 | R -0.003 | K -0.029 | C 0.032 | N -0.02 | G -0.042 | A -0.03 | P -0.731 | H -0.057 | Q 0.032 | W -0.042
E46: W -0.035 | I -0.071 | Q -0.012 | P -0.023 | R -0.014 | D -0.153 | T -0.053 | F -0.025 | S 0.015 | C -0.046 | M 0.006 | G -0.017 | K -0.004 | L 0.014 | V -0.031 | H -0.043 | A -0.018
A61: C -0.03 | W -0.003 | V -0.06 | F -0.06 | M 0.022 | P -0.828 | D -0.024 | I 0.01 | K 0.02 | N -0.061 | E -0.051 | Y 0.015 | L -0.067 | Q 0.012 | R 0.015 | S 0.008 | H -0.004 | T -0.072
Q59: E -0.103 | P -0.733 | S -0.01 | T -0.035 | D -0.429 | K 0.059 | F 0.061 | G -0.192 | H -0.02 | Y -0.012 | N -0.082 | V -0.029 | M -0.011 | I -0.08 | C -0.05 | W -0.029 | A -0.003 | L 0.016 | R 0.092
E50: D 0.016 | V -0.018 | K -0.008 | C -0.007 | H -0.07 | M -0.017 | R -0.002 | G -0.032 | I -0.049 | L -0.016 | T 0.01 | W -0.013 | Y 0.005 | S -0.029 | Q 0 | F -0.029 | P -0.964
G44: A -0.049 | S -0.029 | Y -0.066 | R -0.013 | N -0.086 | K -0.041 | C 0.005 | F -0.126 | P -0.311 | E -0.05 | D 0.019 | V -0.344 | L -0.076 | T -0.093 | I -0.567 | H 0.014 | M -0.043 | W -0.111
G54: P -0.308 | C -0.013 | H 0.045 | N -0.11 | V -0.171 | I -0.227 | M -0.236 | L -0.131 | F -0.127 | K -0.038 | E -0.106 | A -0.028 | W -0.18 | D -0.07 | R -0.044 | T 0.01 | S -0.026
G57: L -0.158 | Q -0.116 | K -0.081 | F -0.237 | N -0.223 | P -0.278 | A -0.145 | Y -0.127 | T -0.089 | H -0.195 | D -0.249 | C -0.163 | R -0.089 | V -0.238 | S -0.093 | I -0.231 | E -0.213 | W -0.256
S48: V -0.059 | Y 0.022 | T 0.002 | L -0.035 | H -0.023 | D 0.004 | Q -0.007 | G -0.005 | I -0.028 | N -0.099 | E 0.027 | F -0.008 | A 0.003 | C -0.047 | P -0.847 | M 0.026 | W -0.074
R56: H -0.069 | K 0.003 | M -0.068 | D -0.175 | Y -0.131 | G -0.081 | N 0.018 | F -0.181 | C -0.097 | V -0.1 | A -0.069 | I -0.143 | S -0.088 | W -0.207 | E -0.066 | Q -0.044 | P -0.062 | T -0.142
